Self-cleavage data for 167 variants are collected here from the RNAGym collection of RNA variant scans (doi:10.7554/elife.80360).

B1: Hammerhead Ribozyme (parent)
chain: ACCGGAUGUGCUUUCCGGUCUGAUGAGUCCGUGAGGACGAAACAG

Variants of B1 are the subject of the series. The experiment in a line: self-cleavage, relative activity (ratio to wild type); higher = more cleavage; co-transcriptional.
In the case of A34C A41C, the self-cleavage turned out to be 0.354.

Regarding A34C A41G, the self-cleavage was found to be 0.367.

With A34C A41U, the self-cleavage came out at 0.363.

Take A37C G45U: the self-cleavage amounted to 0.636.

In the case of A37C G45C, the self-cleavage came out at 0.337.

In the case of A37C G45A, the self-cleavage came out at 0.404.

In the case of A37C G39A, the self-cleavage turned out to be 0.295.

Turning to A37C G39C, the self-cleavage stood at 0.316.

For A37C G39U, the self-cleavage stood at 0.281.

For the variant A34G G45U, the self-cleavage was determined as 0.544.

With A34G G45C, the self-cleavage stood at 0.551.

Consider A34G G45A, for which the self-cleavage was 0.589.

With G36U A41C, the self-cleavage worked out at 0.309.

Consider G36U A41G, for which the self-cleavage came to 0.391.

For G36U A41U, the self-cleavage was determined as 0.372.

With G35A G39C, the self-cleavage was determined as 0.346.

Consider G35A G39A, for which the self-cleavage turned out to be 0.312.

G35A G39U: the self-cleavage was found to be 0.328.

Take A34U G36C: the self-cleavage is 0.406.

With A34U G36U, the self-cleavage worked out at 0.565.

In the case of A34U G36A, the self-cleavage is 0.437.

As for G36C A41C, the self-cleavage came to 0.364.

With G36C A41U, the self-cleavage stood at 0.294.

Turning to G36C A41G, the self-cleavage was 0.449.

On to A34U G39U, for which the self-cleavage stood at 0.356.

Regarding A34U G39C, the self-cleavage amounted to 0.351.

Turning to A34U G39A, the self-cleavage is 0.288.

Regarding A34G G36C, the self-cleavage is 0.276.

As for A34G G36A, the self-cleavage amounted to 0.51.

Take A34G G36U: the self-cleavage was found to be 0.419.

Regarding G35U A41C, the self-cleavage was 0.305.

As to G35U A41G, the self-cleavage stood at 0.33.

Consider G35U A41U, for which the self-cleavage stood at 0.311.

A34C A37U: the self-cleavage was found to be 0.444.

Consider A34C A37G, for which the self-cleavage was 0.588.

As to A34C A37C, the self-cleavage worked out at 0.426.

On to G36U C38G, for which the self-cleavage came to 0.331.

With G36U C38A, the self-cleavage amounted to 0.326.

Consider G36U C38U, for which the self-cleavage is 0.674.

For G36A A40C, the self-cleavage stood at 0.319.

For the variant G36A A40G, the self-cleavage stood at 0.289.

Regarding G36A A40U, the self-cleavage is 0.384.

With G35A G36A, the self-cleavage stood at 0.508.

Turning to G35A G36U, the self-cleavage amounted to 0.427.

Consider G35A G36C, for which the self-cleavage came out at 0.484.

Take G35A C38U: the self-cleavage was 0.587.

Regarding G35A C38G, the self-cleavage worked out at 0.387.

As to G35A C38A, the self-cleavage is 0.482.

On to A34G A41C, for which the self-cleavage was 0.302.

With A34G A41G, the self-cleavage amounted to 0.339.

A34G A41U: the self-cleavage came to 0.284.

For the variant G36C C43A, the self-cleavage was found to be 0.35.

As to G36C C43G, the self-cleavage was found to be 0.286.

As to G36C C43U, the self-cleavage came out at 0.308.

With A34U C43U, the self-cleavage worked out at 0.304.

Consider A34U C43G, for which the self-cleavage was 0.315.

Regarding A34U C43A, the self-cleavage stood at 0.393.

In the case of G36A C43U, the self-cleavage turned out to be 0.378.

Consider G36A C43A, for which the self-cleavage is 0.383.

As for G36A C43G, the self-cleavage stood at 0.274.

G35C A41U: the self-cleavage stood at 0.356.

On to G35C A41G, for which the self-cleavage turned out to be 0.329.

Consider G35C A41C, for which the self-cleavage worked out at 0.337.

Take A34U A44G: the self-cleavage amounted to 1.01.

Take A34U A44U: the self-cleavage is 0.437.

As to A34U A44C, the self-cleavage worked out at 0.447.

For G35U A40G, the self-cleavage worked out at 0.342.

On to G35U A40U, for which the self-cleavage was found to be 0.366.

On to G35U A40C, for which the self-cleavage came out at 0.374.

On to G33U G35U, for which the self-cleavage is 0.914.

On to G33U G35A, for which the self-cleavage turned out to be 0.774.

For G33U G35C, the self-cleavage is 0.964.

As for G35U A44G, the self-cleavage amounted to 0.943.

Take G35U A44C: the self-cleavage was 0.384.

G35U A44U: the self-cleavage was found to be 0.338.

On to G36A A41C, for which the self-cleavage was determined as 0.382.

With G36A A41U, the self-cleavage was 0.279.

Regarding G36A A41G, the self-cleavage came to 0.344.

For the variant G36U, the self-cleavage worked out at 0.625.

For G36A, the self-cleavage turned out to be 0.733.

Take G36C: the self-cleavage amounted to 0.52.

Regarding G33U G39C, the self-cleavage was found to be 0.464.

G33U G39A: the self-cleavage is 0.341.

For G33U G39U, the self-cleavage worked out at 0.343.

Take G35A A42U: the self-cleavage stood at 0.29.

In the case of G35A A42C, the self-cleavage stood at 0.354.

For the variant G35A A42G, the self-cleavage was 0.252.

With G36U C43G, the self-cleavage turned out to be 0.325.

Regarding G36U C43U, the self-cleavage was 0.304.

On to G36U C43A, for which the self-cleavage turned out to be 0.36.

With G35A A44U, the self-cleavage amounted to 0.46.

Regarding G35A A44G, the self-cleavage came to 0.837.

With G35A A44C, the self-cleavage came out at 0.42.

On to A34U A40U, for which the self-cleavage was 0.305.

As to A34U A40G, the self-cleavage is 0.304.

As to A34U A40C, the self-cleavage was determined as 0.404.

On to G36C A37C, for which the self-cleavage was determined as 0.296.

Take G36C A37U: the self-cleavage was 0.29.

With G36C A37G, the self-cleavage was 0.748.

As for G36C A40C, the self-cleavage is 0.4.

Consider G36C A40U, for which the self-cleavage was 0.346.

G36C A40G: the self-cleavage stood at 0.368.

G35A C43A: the self-cleavage was 0.322.

Consider G35A C43U, for which the self-cleavage was determined as 0.401.

For G35A C43G, the self-cleavage was found to be 0.353.

For G35C A40C, the self-cleavage is 0.466.

For G35C A40U, the self-cleavage was found to be 0.296.

G35C A40G: the self-cleavage came to 0.28.

As for G35U G36C, the self-cleavage turned out to be 0.476.

As for G35U G36A, the self-cleavage was 0.525.

On to G35U G36U, for which the self-cleavage was determined as 0.463.

On to A34G A37G, for which the self-cleavage was found to be 0.649.

Regarding A34G A37U, the self-cleavage stood at 0.47.

For A34G A37C, the self-cleavage is 0.649.

Turning to G36C C38U, the self-cleavage amounted to 0.335.

Consider G36C C38A, for which the self-cleavage turned out to be 0.403.

G36C C38G: the self-cleavage came out at 0.369.

For A37C, the self-cleavage was 1.

Take A37G: the self-cleavage is 0.886.

For the variant G36A A44G, the self-cleavage was 0.75.

Take G36A A44U: the self-cleavage stood at 0.332.

Regarding G36A A44C, the self-cleavage is 0.31.

Regarding G35U A37G, the self-cleavage came to 0.679.

For the variant G35U A37C, the self-cleavage is 0.548.

With G35U A37U, the self-cleavage came to 0.52.

Regarding G35C G39C, the self-cleavage came to 0.365.

On to G35C G39A, for which the self-cleavage amounted to 0.31.

Consider G35C G39U, for which the self-cleavage was 0.307.

As for A37C A44U, the self-cleavage turned out to be 0.368.

Take A37C A44C: the self-cleavage amounted to 0.28.

As to A37C A44G, the self-cleavage was determined as 0.77.

For the variant G35U G39U, the self-cleavage was determined as 0.42.

G35U G39C: the self-cleavage worked out at 0.344.

Take G35U G39A: the self-cleavage came out at 0.331.

On to G36C A44U, for which the self-cleavage was 0.296.

With G36C A44G, the self-cleavage is 0.588.

With G36C A44C, the self-cleavage worked out at 0.383.

On to A37C A40U, for which the self-cleavage was determined as 0.268.

In the case of A37C A40C, the self-cleavage is 0.285.

With A37C A40G, the self-cleavage is 0.354.

Take G35U C43A: the self-cleavage is 0.378.

Consider G35U C43G, for which the self-cleavage turned out to be 0.34.

Regarding G35U C43U, the self-cleavage is 0.43.

As for G36U G45A, the self-cleavage came out at 0.452.

G36U G45U: the self-cleavage is 0.441.

As for G36U G45C, the self-cleavage is 0.454.

For A34G C38U, the self-cleavage is 1.13.

Regarding A34G C38A, the self-cleavage came out at 0.349.

Consider A34G C38G, for which the self-cleavage is 0.598.

Turning to A34U A37G, the self-cleavage stood at 0.757.

A34U A37C: the self-cleavage was determined as 0.572.

Turning to A34U A37U, the self-cleavage worked out at 0.412.

G36U A37C: the self-cleavage came to 0.331.

For G36U A37G, the self-cleavage was determined as 0.479.

Take G36U A37U: the self-cleavage came out at 0.724.

In the case of A37C C38A, the self-cleavage worked out at 0.535.

A37C C38G: the self-cleavage was 0.381.

Turning to A37C C38U, the self-cleavage was 0.546.

For G35C C38G, the self-cleavage worked out at 0.376.

For the variant G35C C38A, the self-cleavage was 0.398.

Turning to G35C C38U, the self-cleavage worked out at 0.67.

As to A34C C43U, the self-cleavage worked out at 0.287.

Regarding A34C C43G, the self-cleavage came to 0.327.

On to A34C C43A, for which the self-cleavage worked out at 0.309.

Regarding G35C C43G, the self-cleavage was 0.325.

On to G35C C43A, for which the self-cleavage was 0.352.

For G35C C43U, the self-cleavage is 0.387.
